According to patent publication US20120107323A1, “KINASE PROTEIN BINDING INHIBITORS” (University of Florida, published 2012):

Columns and labels:
[1] = target: T1, Insulin-like Growth Factor 1 Receptor (IGF-1R), endogenous, of C8161 and A375 melanoma cells (human, UniProt P08069); experiment: co-immunoprecipitation from C8161 tumours of PBS treated mice, densitometry of Western blot
Procedure: (§1) (p<0.05). […] To assess the in vivo effects of INT2-31 on cell proliferation, C8161 xenografts were stained with Ki67 antibody (FIG. 20C). […] The effect of INT2-31 on the in vivo interaction of FAK and IGF-1R in C8161 tumors was analyzed by immunoprecipitation of FAK from treated and untreated tumor. […] Finally, tumor analysis for AKT activation was performed and the level of p-AKT was detected by Western blot. […] Therefore, our lead compound, INT2-31, decreases in vivo tumor growth, disrupts the in vivo interaction of FAK and IGF-1R and results in a decrease in phosphorylation of AKT.

[2] = target: T1, Insulin-like Growth Factor 1 Receptor …; experiment: co-immunoprecipitation from C8161 tumours of mice treated with the small molecule INT2-31, densitometry of Western blot
Procedure: as §1

densitometry ratio of IGF-1R to FAK [1]: 0.98 | densitometry ratio of IGF-1R to FAK [2]: 0.78
B1: Focal adhesion kinase (FAK), endogenous, of C8161 and A375 melanoma cells (enzyme)
chain: AAAYLDPNLNHTPNSSTKTHLGTGMERSPGAMERVLKVFHYFESNSEPTTWASIIRHGDATDVRGIIQKIVDSHKVKHVACYGFRLSHLRSEEVHWLHVDMGVSSVREKYELAHPPEEWKYELRIRYLPKGFLNQFTEDKPTLNFFYQQVKSDYMLEIADQVDQEIALKLGCLEIRRSYWEMRGNALEKKSNYEVLEKDVGLKRFFPKSLLDSVKAKTLRKLIQQTFRQFANLNREESILKFFEILSPVYRFDKECFKCALGSSWIISVELAIGPEEGISYLTDKGCNPTHLADFTQVQTIQYSNSEDKDRKGMLQLKIAGAPEPLTVTAPSLTIAENMADLIDGYCRLVNGTSQSFIIRPQKEGERALPSIPKLANSEKQGMRTHAVSVSETDDYAEIIDEEDTYTMPSTRDYEIQRERIELGRCIGEGQFGDVHQGIYMSPENPALAVAIKTCKNCTSDSVREKFLQEALTMRQFDHPHIVKLIGVITENPVWIIMELCTLGELRSFLQVRKYSLDLASLILYAYQLSTALAYLESKRFVHRDIAARNVLVSSNDCVKLGDFGLSRYMEDSTYYKASKGKLPIKWMAPESINFRRFTSASDVWMFGVCMWEILMHGVKPFQGVKNNDVIGRIENGERLPMPPNCPPTLYSLMTKCWAYDPSRRPRFTELKAQLSTILEEEKAQQEERMRMESRRQATVSWDSGGSDEAPPKPSRPGYPSPRSSEGFYPSPQHMVQTNHYQVSGYPGSHGITAMAGSIYPGQASLLDQTDSWNHRPQEIAMWQPNVEDSTVLDLRGIGQVLPTHLMEERLIRQQQEMEEDQRWLEKEERFLKPDVRLSRGSIDREDGSLQGPIGNQHIYQPVGKPDPAAPPKKPPRPGAPGHLGSLASLSSPADSYNEGVKLQPQEISPPPTANLDRSNDKVYENVTGLVKAVIEMSSKIQPAPPEEYVPMVKEVGLALRTLLATVDETIPLLPASTHREIEMAQKLLNSDLGELINKMKLAQQYVMTSLQQEYKKQMLTAAHALAVDAKNLLDVIDQARLKMLGQTRPH
